Measured values reported in patent US20130064837A1 (University of California, published 2013).

Experiments:
mouse integrin β8 = target: T1, mouse integrin β8 (mouse, UniProt Q0VBD0 22-767, limits assumed); test: antibody binding, cell surface staining, flow cytometry (mouse/human chimeric β8 constructs)
T1 construct: also called itgb8; M itgb8
T1 sequence (looked up): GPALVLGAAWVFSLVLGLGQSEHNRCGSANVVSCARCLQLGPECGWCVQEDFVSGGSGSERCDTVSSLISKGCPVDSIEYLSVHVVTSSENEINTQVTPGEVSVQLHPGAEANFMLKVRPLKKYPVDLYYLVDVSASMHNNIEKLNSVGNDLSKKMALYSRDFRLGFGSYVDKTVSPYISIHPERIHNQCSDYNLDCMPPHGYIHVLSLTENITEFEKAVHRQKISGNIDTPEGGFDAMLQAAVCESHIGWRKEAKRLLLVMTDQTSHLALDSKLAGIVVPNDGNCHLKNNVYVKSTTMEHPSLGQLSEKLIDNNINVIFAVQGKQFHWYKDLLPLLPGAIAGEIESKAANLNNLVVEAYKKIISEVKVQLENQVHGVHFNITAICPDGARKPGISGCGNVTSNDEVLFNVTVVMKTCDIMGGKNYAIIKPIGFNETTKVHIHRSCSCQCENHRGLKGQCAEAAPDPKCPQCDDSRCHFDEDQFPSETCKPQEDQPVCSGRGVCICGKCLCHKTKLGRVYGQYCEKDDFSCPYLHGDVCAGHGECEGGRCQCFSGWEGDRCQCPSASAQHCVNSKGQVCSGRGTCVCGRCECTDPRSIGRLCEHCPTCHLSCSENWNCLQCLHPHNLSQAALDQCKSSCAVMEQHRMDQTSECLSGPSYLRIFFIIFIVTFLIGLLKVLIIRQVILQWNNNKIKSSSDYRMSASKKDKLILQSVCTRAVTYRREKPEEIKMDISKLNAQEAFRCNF
Description: (§1) Chimeric integrin β8 constructs, which swapped mouse sequences into human ITGB8 were used to localize the 37E1B5 binding epitope. The epitope was localized by antibody binding, cell surface staining, and detection by flow cytometry. The 37E1B5 epitope is encompassed within amino acids 74-180 of human integrin β8. 37E1B5 binds to human, but not to mouse β8. Therefore, at least one of the 9 non-conservative amino acid differences or 7 minor amino acid differences (indicated by + in the middle line of the sequence) are included in the binding epitope. These domains reflect portions of what are known in the field as the Psi, hybrid and the alpha1 helix of the Beta-I domain of the integrin β8 subunit, and are found on the surface of the molecule.

human integrin β8 = target: T2, human integrin β8 (human, UniProt P26012 43-769); test: antibody binding, cell surface staining, flow cytometry
T2 construct: whole, on cells; also called ITGB8; H ITGB8
T2 sequence (P26012 43-769): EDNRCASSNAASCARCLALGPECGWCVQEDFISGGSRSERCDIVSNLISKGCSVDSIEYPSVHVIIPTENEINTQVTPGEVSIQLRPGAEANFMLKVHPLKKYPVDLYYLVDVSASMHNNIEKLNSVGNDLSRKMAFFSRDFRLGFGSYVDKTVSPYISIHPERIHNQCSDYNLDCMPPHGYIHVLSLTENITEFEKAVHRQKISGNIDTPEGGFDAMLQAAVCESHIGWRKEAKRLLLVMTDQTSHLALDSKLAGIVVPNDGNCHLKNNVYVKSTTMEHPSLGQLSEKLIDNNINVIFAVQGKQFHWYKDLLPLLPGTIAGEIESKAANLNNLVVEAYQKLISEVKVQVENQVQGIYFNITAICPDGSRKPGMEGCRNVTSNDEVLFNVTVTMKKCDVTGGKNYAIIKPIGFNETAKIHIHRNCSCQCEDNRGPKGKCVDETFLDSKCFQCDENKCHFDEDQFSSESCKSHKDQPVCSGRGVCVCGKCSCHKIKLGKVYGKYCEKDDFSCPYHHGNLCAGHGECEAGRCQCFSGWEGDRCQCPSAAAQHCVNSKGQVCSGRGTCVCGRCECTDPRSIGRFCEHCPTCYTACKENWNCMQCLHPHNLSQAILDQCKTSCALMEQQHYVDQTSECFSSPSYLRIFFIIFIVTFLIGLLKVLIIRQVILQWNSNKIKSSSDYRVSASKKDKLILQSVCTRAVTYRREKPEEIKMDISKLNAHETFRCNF
Description: as §1

human integrin αvβ8 = human integrin αvβ8 (human, UniProt P06756 31-1048; P26012 43-769); test: cell staining and flow cytometry on primary human articular chondrocytes
Chain of human integrin αvβ8 (P06756 31-1048, chain 1 of 2): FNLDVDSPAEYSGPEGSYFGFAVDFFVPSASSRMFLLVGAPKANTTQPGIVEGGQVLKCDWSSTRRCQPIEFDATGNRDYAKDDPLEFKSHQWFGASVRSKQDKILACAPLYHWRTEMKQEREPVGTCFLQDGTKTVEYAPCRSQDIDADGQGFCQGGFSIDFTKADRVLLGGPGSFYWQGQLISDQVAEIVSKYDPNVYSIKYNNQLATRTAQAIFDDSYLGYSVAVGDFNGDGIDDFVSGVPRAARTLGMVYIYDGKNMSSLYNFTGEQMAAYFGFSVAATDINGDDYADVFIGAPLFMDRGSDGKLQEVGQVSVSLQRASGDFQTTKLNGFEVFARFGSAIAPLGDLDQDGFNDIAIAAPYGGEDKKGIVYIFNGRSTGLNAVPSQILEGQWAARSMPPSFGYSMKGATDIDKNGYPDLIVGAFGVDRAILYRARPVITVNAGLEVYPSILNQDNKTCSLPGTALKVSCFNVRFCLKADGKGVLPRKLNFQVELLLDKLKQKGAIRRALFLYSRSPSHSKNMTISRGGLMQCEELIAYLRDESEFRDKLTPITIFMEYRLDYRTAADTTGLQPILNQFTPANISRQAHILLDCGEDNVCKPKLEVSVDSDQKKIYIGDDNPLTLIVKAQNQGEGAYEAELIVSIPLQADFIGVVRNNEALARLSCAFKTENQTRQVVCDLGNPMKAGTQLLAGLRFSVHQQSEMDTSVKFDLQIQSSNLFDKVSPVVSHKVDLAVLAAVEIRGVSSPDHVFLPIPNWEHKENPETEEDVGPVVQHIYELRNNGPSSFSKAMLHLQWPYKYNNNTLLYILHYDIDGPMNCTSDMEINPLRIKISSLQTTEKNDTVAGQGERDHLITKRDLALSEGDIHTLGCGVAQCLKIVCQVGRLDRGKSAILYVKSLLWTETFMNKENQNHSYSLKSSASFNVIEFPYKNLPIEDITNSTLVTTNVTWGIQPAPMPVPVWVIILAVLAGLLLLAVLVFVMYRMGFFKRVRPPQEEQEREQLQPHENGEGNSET
Chain of human integrin αvβ8 (P26012 43-769, chain 2 of 2): as the sequence (P26012 43-769) above
Description: Adult articular cartilage was harvested from the joint space of knee from a patient undergoing elective repair of a knee for chronic osteoarthritis. Primary chondrocytes were grown to 70% confluence and the integrin receptor expression determined by cell staining and flow cytometry. The antibodies used were anti-β8 (37E1B5), and anti-β6 (E7P6). […] Primary chondrocytes were co-cultured with TMLC TGF-β reporter cells (Annes et al. (2004) J. Cell Biol. 165:723) in a TGF-β bioassay in the presence or absence of anti-β8 (37E1B5) or neutralizing anti-β6. Anti-β8 produced a robust blockade of TGF-β activation while anti-β6 produced no such effect.

- binding result (mouse integrin β8): no binding
- binding result (human integrin β8): binds
- binding result (human integrin αvβ8): binds
B1: 37E1B5 (antibody, V domains shown)
VH: EVQLVESGGGLVQPGGSLNLSCAVSGFVFSRYWMSWVRQAPGKGLEWIGEINPDSSTINYTSSLKDKFIISRDNAKNTLYLQMNKVRSEDTALYYCACLITTEDYWGQGTSVTVSS
VL: QIVLTQSPSSMYASLGERVTIPCKASQDINSYLSWFQQKPGKSPKTLIYYANRLVDGVPSRFSGSGSGQDYSLTISSLEYEDMGIYYCLQYDEFPYTFGGGTKLEIK
notes: Three versions were made in CHO cells: mouse IgG1, mouse IgG2a and partially humanized IgG1; also called 37E1B5 antibody; anti-β8 (37E1B5)
